Laboratory results taken from patent US7122374.

Tests used:
Assay in all cases: ELISA, peptide coated at 1 µg/mL, mAb4G8 diluted 1000 times, HRP anti-mouse Igs
Aβ1-40 = target: Aβ1-40
AβN3E-42 = target: AβN3E-42
AβN3pE-42 = target: AβN3pE-42
Sequence of AβN3pE-42 (peptide, as listed by the source): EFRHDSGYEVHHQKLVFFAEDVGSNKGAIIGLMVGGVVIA

Sequence of Aβ1-40 (peptide, as listed by the source): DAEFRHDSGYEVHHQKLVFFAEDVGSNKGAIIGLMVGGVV

absorbance at 450 nm (Aβ1-40): 1.57 A450
absorbance at 450 nm (AβN3E-42): 1.39 A450
absorbance at 450 nm (AβN3pE-42): 2.27 A450
Substance: monoclonal antibody mAb4G8 (SENETEC Inc)
